10 molecules from article PMC5982114 (Arteriosclerosis, thrombosis, and vascular biology, 2018) can be followed below.

Targets include FIXa K126A (human) (UniProt P00740); FIXa K132A (human) (UniProt P00740); FIXa K132A/R170A (human) (UniProt P00740); FIXa N129A (human) (UniProt P00740); FIXa R150A (human) (UniProt P00740); FIXa R165A (human) (UniProt P00740).
The target of a further test is Protein S (human) (UniProt P07225). Put plainly: fluorescence polarisation. Background: In fluorescence polarisation assays a small probe gives low polarisation when free and higher when bound to something large.
Test [1] concerns the target Alexa-Fluor-488-labeled PS (human) (UniProt P07225). Kind of test: flow cytometry on cells.
Test [2] deals with FIXa Padua mutant (R170L) (human) (UniProt P00740).
The target of another test is Factor IXa wild type (human, UniProt P00740 47-191; P00740 227-461). Kind of test: cell-based or functional assay.
A further test deals with DEGR-FIXa K126A (human) (UniProt P00740). Put plainly: other fluorescence titration.
The target of a further test is DEGR-FIXa K132A (human) (UniProt P00740). Put plainly: other fluorescence titration.
Another test deals with DEGR-FIXa N129A (human) (UniProt P00740). Put plainly: other fluorescence titration.
Test [3] addresses DEGR-FIXa Padua mutant (R170L) (human) (UniProt P00740). Kind of test: other fluorescence titration.
Another test addresses DEGR-FIXa R150A (human) (UniProt P00740). Kind of test: other fluorescence titration.
For the next test, the target named is DEGR-FIXa R165A (human) (UniProt P00740). Put plainly: other fluorescence titration.
The target of test [4] is DEGR-labelled des-Gla FIXa (human). Put plainly: other fluorescence titration.

Broadly, the IC50 is the concentration at which inhibition is half-maximal. Higher therefore signals lower potency. As for zymogen form of FIX (natural protein), the IC50 in the test with Protein S (human) came to 200 nM.
With “FIXa K132A (from UniProt P00740 47-191) (enzyme)”, in the test with Protein S (human), the IC50 turned out to be 213 nM. The IC50 values of the last two molecules are within 1.5-fold of each other.
In the test with Protein S (human), “FIXa R165A (from UniProt P00740 47-191) (enzyme)” came in with an IC50 of 68 nM.
des-Gla FIXa (domain or fragment) came in with an IC50 with Protein S (human) of 135 nM. This IC50 lies about 2-fold higher than the previous one.
On the same count and under the same terms, then “FIXa K126A (from UniProt P00740 47-191) (enzyme)”, with 140 nM; and “FIXa R150A (from UniProt P00740 47-191) (enzyme)”, with 43 nM.
The molecule “fluorescently labeled des-Gla FIXa (domain or fragment)” gave a median fluorescence intensity in test [1] of 4000.
Molecule “FIXa N129A (from UniProt P00740 47-191) (enzyme)” came in with an IC50 in the test with Protein S (human) of 92 nM. In other words, the double-digit nanomolar range.
Molecule “FIXa Padua mutant (R170L) (from UniProt P00740 47-191) (enzyme)” gave an IC50 with Protein S (human) of 163 nM. This IC50 lies about 1.8-fold higher than the previous one.

B1: Protein S (natural protein, human, UniProt P07225 42-676, looked up)
chain: ANSLLEETKQGNLERECIEELCNKEEAREVFENDPETDYFYPKYLVCLRSFQTGLFTAARQSTNAYPDLRSCVNAIPDQCSPLPCNEDGYMSCKDGKASFTCTCKPGWQGEKCEFDINECKDPSNINGGCSQICDNTPGSYHCSCKNGFVMLSNKKDCKDVDECSLKPSICGTAVCKNIPGDFECECPEGYRYNLKSKSCEDIDECSENMCAQLCVNYPGGYTCYCDGKKGFKLAQDQKSCEVVSVCLPLNLDTKYELLYLAEQFAGVVLYLKFRLPEISRFSAEFDFRTYDSEGVILYAESIDHSAWLLIALRGGKIEVQLKNEHTSKITTGGDVINNGLWNMVSVEELEHSISIKIAKEAVMDINKPGPLFKPENGLLETKVYFAGFPRKVESELIKPINPRLDGCIRSWNLMKQGASGIKEIIQEKQNKHCLVTVEKGSYYPGSGIAQFHIDYNNVSSAEGWHVNVTLNIRPSTGTGVMLALVSGNNTVPFAVSLVDSTSEKSQDILLSVENTVIYRIQALSLCSDQQSHLEFRVNRNNLELSTPLKIETISHEDLQRQLAVLDKAMKAKVATYLGGLPDVPFSATPVNAFYNGCMEVNINGVQLDLDEAISKHNDIRAHSCPSVWKKTKNS
A word on the Kd: it is the free concentration of one partner at which half of the binding sites on the other are occupied at equilibrium, for simple one-to-one binding. A lower Kd goes with tighter binding. B1: the Ki of inhibition by PS of FX activation by FIXa-phospholipid (S-2765) in the test with FIXa K126A (human) is 100 nM; with FIXa K132A (human), 132 nM; with FIXa K132A/R170A (human), 271 nM; with FIXa N129A (human), 72 nM; in test [2], 175 nM; with FIXa R150A (human), 48 nM. In addition, the Ki of inhibition by PS of FX activation by FIXa-phospholipid (S-2765) came to 33 nM with FIXa R165A (human) and 35 nM with Factor IXa wild type. The Ki of inhibition by PS of FX activation in the Xase complex (FIXa-FVIIIa) in the test with des-Gla FIXa (human) came to 120 nM. Further, the Kd came out at 118 nM with DEGR-FIXa K126A (human); 148 nM with DEGR-FIXa K132A (human); 77 nM in the test with DEGR-FIXa N129A (human); 157 nM in test [3]; 48 nM in the test with DEGR-FIXa R150A (human); 54 nM with DEGR-FIXa R165A (human). In test [4], the dissociation constant Kd came to 124 nM.
